Data published in patent publication US20080187530A1.

Target: formyl peptide receptor-like 1 (FPRL1) (human) (UniProt P25090)
Test: cell-based or functional assay

Sequence of UniProt P25090 (P25090 whole entry): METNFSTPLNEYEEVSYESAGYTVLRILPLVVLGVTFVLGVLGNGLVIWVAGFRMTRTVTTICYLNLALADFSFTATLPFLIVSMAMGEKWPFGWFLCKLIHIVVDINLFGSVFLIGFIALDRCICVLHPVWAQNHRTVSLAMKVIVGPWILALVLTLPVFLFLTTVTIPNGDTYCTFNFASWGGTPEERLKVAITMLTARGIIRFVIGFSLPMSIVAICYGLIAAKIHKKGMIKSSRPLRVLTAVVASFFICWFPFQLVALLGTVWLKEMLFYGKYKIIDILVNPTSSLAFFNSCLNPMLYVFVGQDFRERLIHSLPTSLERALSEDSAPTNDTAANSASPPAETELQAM

**Q.** Which decrease in proliferation of HaCaT cells treated with LL-37 after pretreatment with pertussis toxin does the source give for “LL-37 peptide (from UniProt P49913 134-170)” here?
**A.** The decrease in proliferation of HaCaT cells treated with LL-37 after pretreatment with pertussis toxin was 50%.
